From the RNAGym collection of RNA variant scans (doi:10.1073/pnas.2313332121)

B1: TPR t1 (parent)
chain: GACCAAUCUGCCCUCAGAGCUCGAGAACAUCUUCGGAUGCAGAGGAGGCAGGCUUCGGUGGCGCGAUAGCGCCAACGUCCUCAACCUCCAAUGCAUCCCACCACAUGAUGAUGCCUGAAGAGCCUUGGUUUUUUG

Variants of: B1
Experiment: polymerase ribozyme fitness, log enrichment relative to wild type (log ratio); higher = more active; in vitro selection for triplet polymerase activity
In short: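 Mutant libraries of both subunits of a heterodimeric triplet polymerase ribozyme were PCR-built, transcribed, and selected once in triplicate, with frozen incubation at −7 °C and capture of gel-excised extended constructs on streptavidin beads before RT-PCR. Illumina sequencing of input and output libraries was filtered to genotypes with ≥10 input reads and ≥1 read per output. Fitness is the logarithm of genotype enrichment over wild-type enrichment, using inverse-variance-weighted replicate averages. The logarithm is base 2.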

Row | Variant | polymerase ribozyme fitness (log ratio)
1 | GACCAAUCUGCCCUCAGAGCUCGAGAACAUCUUCGGAUGCAGAGAAGUAAGGUUUCGGUGGCGCGAUAGCGCCAACGUCCUCAACCUCCAAUGCAUCCCACCACAUGAUGAUGCGUGAAGAGCCUUGGUUUUUUG | -3.77
2 | GACCAAUCUGCCCUCAGAGCUCGAGAACAUCUUCGGAUGCAGAGGAGGCAGGCUUCGGUGGCGCGAUAGCGCAAACGUCCUGAACCUCCAAUGCAUCCCACCACAUGAUGAUGCCUUAAGAGCCUUGGUCUUUUG | -0.953
3 | GACCAAUCUGCCCUCAGAGCUCGAGAACAUCUUCGGAUGCAGAGGAGGCAGGCUUCGGUGGCGCUAUAUCGCCAACGUCCUCAACCUCCAAUGCAUCCCACCACAUGAUGAUACCUGAAGAGCCUUGGUGUUUUG | -4.13
4 | GACCAAUCUGCCCUCAGAGCUCGAGAACAUCUUCGGAUGCAGAGGAGGCAGGCUUCGGUGUCGCGAUAGCGCCAACGUCCUCAACCUCCAAUGCAUCCCACCACAUGAUGUUGCCUGAAGAGCCUUGGUUUUUUG | -1.75
5 | GACCAAUCUGCCGUCAGAGCUCGAGAACAUCUUCGGAUGCGGAGGAGUCAGGCUUCGGUGGCGCGAUAGCGCCAACGGCCUCAACCUCCACUGCAUCCCACCACAUGAUGAUGCCUGAAGAGCCUUGGUUUUUUG | -5.06
6 | GACCAAUCUGCCCCCAGAGCUCGAGAACAUCUUCGGAUGCAGAGGAGGCAGGCUUCGGUGGCGCGAUAGCGCCAACGUCCUCAACCUCCAAUGCAUCCCACUACAUGAUGAUGCCUGAAGAGCCUUGGUUUUUUG | -3.54
7 | GACCAAUCUGGCCUCAGAGCUCGAGAACAUCUUCGGAUGCAGAGGCGGCAGGCUUCGGUGGCGCGAUAGCGCCAACGUCCUCAACCUCCAAUGCAUCCCACCACAUGAUGAUGCCUGAAGAGCCUUGGUUUUUUG | -1.01
8 | GACCAUUCUGCCCUCAGAGCUCGAGAACAUCUUCGGAUGCAGAGGAGGCAGGCUUCGGUGGCGCGAUAGCGCCAACGUCCUCAACCUCCACUGCAUCCCACCACAUGAUGAUGCCUGAAGAGCCUUGGUUUUUUG | -1.21
9 | GACCAAACUGCCCUCAGUGCUGGAGAACAUCUUCGGAUGCAGAGGAGGCAGGCUUCGGUGGCGCGAUAGCGACAACGUCCUCAACCUCCAAUGCAUCCCACCACAUGAUGAUGCCUGAAGAGCCUUGGUUUUUUG | -4.55
10 | GACCAAUCUGCCCUCAGAGCUCGAGAACAUCUUCGGAUGUAGAAGAGGCAGGCUUCGGUGGUGCGAUAGCGCCAACGUCCUCAACCUCCAAUGCAUCCCACCACAUGAUGAUGCCUGAAGAGCCUUGGUUUUUUG | -1.32
11 | GACCAAUCUGCCCUCAGAGCUCGAGAACGUCUUCGGAUGCAGAGGAGGCAGGCUUCGGUGGCGCGAUAGCGCCAACGUCCUCAACCUCCAAUGCAUCCCACCACAUGAUGAUGCCAGAAGAGCCUUGGUUUUUUG | -3.67
12 | GACCAAUCUGCCCCCAGAGCUCGAGAACAUCUUCGGAUGCAGAGGAGGCAGGCUUGGGUGGCGCGAUAGCGCCAACGUCCUCAACCUCCAAUGCAUCCCACCACAUGAUGAUGCCUGAAGAGCCUUGGUUUUUUG | -2.27
13 | GACCAAUCUGCCCUCAGAGCUCGAGAACAUCUUCGGAUGCAUAGGAGGCCGGCUUCGGUGGUGCGAUAGCGCCAACGUCCUCAGCCUCCAAUGCAUCCCACCACAUGAUGAUGGCUGAAGAGCCUUGGUUUUUUG | -4.07
14 | GACCAAUCUGCCCUCAGAGCUCGAGAACAUCUUCGGAUGAAGAGGAGGCAGGCUUCGGUGGUGCGAUAGCGCCAACGUCCUCAACCUCCAUUCCAUCCCACCAUAUGAUGAUACCUGAAGAGCCUUGGUUUUUUG | -2.62
15 | GAUCAAUCUGCCCUCAGAGCUCGAGAACAUCUUCGGAUGCAGAGGAGGCAGGCUUCGGUGGCGCGAUAGUGCCAACGUCCUCAACCUCCAAUGCAUCCCACCACAUGAUGAUGCCUGAAGAGCCUUGGUUUUUUG | -0.813
16 | GACCAAUUUGUCCUCAGAGCUCGAGAACAUCUUCGGAGGCAGGGGAGGCAGGCUUCGGUGGCGCGAUAGCGCCAACGUCCUCAACCUCCAAUGCAUCCCACCAUAUGAUGAUGCCUGAAGAGCCUUGGUUUUUUG | -2.94
17 | GCCGAAUCUGCCCUCAGAGCUCGAGAACAUCUUCGGAUGCAGAGGAGGCAGGCUUCGGUGGCGCGAUAGCGCCAACGUCCUCAACCUCCAAUGCAUCCCACCACAUGAUGAUGACUGAAGAGCCUUGGUUUUUUG | -3.53
18 | GACCAAUCUGCCCUCAGAGCUCGAGAACAUCUUCGGAUGCAGAGGAGGCAGGCUUCGGUGGCGCGAUAGUGCCAACGUCCUCAACCUCCAAUGCAUACCACGACAUGAGGAUGCCUAAAGAGCCUUGGUUUUUUG | -6.26
19 | GACCAAUCUGCCCUCAGAGCUCGAGAACAUCUUCGGAUGCAGAGGAGGCAGGCUUCGGUGGCGCGAUAGCGCGAACGUCCUCAACCUCCAAUGCAUCCCACCACAUGAUGAUGCCUGAAGAGCCUUUGUUUUUUG | -1.75
20 | GACCAAUCUGCCCUCUGAGCUCGAGAACAUCUUCGGAUGCAGAGGAGGCAGGCUUCGGUGGCGCGAUAGCGACAACGUCCUCAACCUCCAAUGCAUCCCACCACAUGAUGAUGCCUGAAGAGCCUUGGUUCUUUG | -1.73
21 | GACCAAACUGCCCUCAGAGCUCGAGAACAUCUUCGGAUGCAGACGAGGCAGGCUUCGGUGGCGCGAUAGGGCCAACGUCCUCAACCUCCAAUGCAUCCCACCACAUGAUGAUGCCUGAAGAGCCUUGGUUUUUUG | -3.95
